± gives the uncertainty stated by the source.

This data set can be described thus: amyloid nucleation score (Sup35N fusion, yeast selection) (log enrichment); library NNK1; higher = more nucleation; inactive = no reads after selection. Put shortly: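 For the nucleation score, DiMSum gave the log enrichment of output over input reads, centred on the mode score of non-aggregating sequences. Psi-negative yeast expressing Sup35N fused to peptides of 20 random codons were induced with 100 μM copper sulfate for 24 hours and grown 7 days at 30°C on medium lacking adenine and uracil. Input and output plasmid inserts were Illumina-sequenced, and sequences with under 100 input reads were excluded.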
As to AQFFVLSSLW, the amyloid nucleation score was -0.085 ± 0.93.
The same measure for NGTIHMPLVWGYKLDRPRGW: 0.969 ± 0.7.
The same measure for FHYLMDYSRLNDIPLEDWGW: -0.411 ± 0.73; for CQNYSHLWGEVTEWLCQRGP: 3.39 ± 0.17.
The same measure for NYILFWRTSSNFECPYP: 0.181 ± 0.24; for KDIEYCASMCESCPYMT: 2.86 ± 0.39.
On to LYAKLQLLRNKYRVYLFVTS, for which the amyloid nucleation score is -0.741 ± 0.55.
The same measure for IISAFISESTYDCGFASWVS: -0.187 ± 0.42; for YYYEPLFPRELHSQLYLL: -0.268 ± 0.8; for WRGISVQAVRRLCAKNKSSR: 1.25 ± 0.85.
The same measure for IACCVRSVECGRGCQLRGLA: 0.217 ± 0.83; for YMYEMGICFELDDTHEG: 0.608 ± 0.55; for FNFEFLTCL: “inactive”.
The same measure for SNIREPDFRCIGLATF: 0.523 ± 0.7; for VVEARWNKAMHTNFLNVRES: 0.601 ± 0.65; for CVYSFNWLRLLGALSG: 2.18 ± 0.24.
Consider IKIRAICVCMFDSQEGLGET, for which the amyloid nucleation score came to 0.601 ± 0.43.
Take TLCCVWSNSFLRVTHDVYKA: the amyloid nucleation score was 8.518 ± 0.057.
The same measure for MIVDNHWHECYSRAS: -1.76 ± 1.4; for EAVRWRGRNVRNLFWDN: 0.03 ± 0.35; for GLLRLDRVNISALICHQVNV: 0.873 ± 0.62.
The same measure for FKRCKRIPDPQSIGSRHFGA: 0.568 ± 0.58; for INRFEG: -0.385 ± 0.68; for SNLVCII: 0.211 ± 0.59.
The same measure for SFGANYTLILTVIIQRLADQ: 6.31 ± 0.083.
Turning to SWRNVLKSGASRNKVDRSSL, the amyloid nucleation score is -0.22 ± 1.1.
The same measure for GVQFQVVRMSCSVLSARLRL: 1.29 ± 0.18; for YSHFEQYMDNFNIMNYDYRD: -0.879 ± 1.2.
The same measure for LVWLY: 0.493 ± 0.68; for VSFSCLMSPE: 0.126 ± 0.32.
The same measure for LKRDVTSVSGY: 0.348 ± 0.38; for LHTTKK: 0.293 ± 0.48; for HTTFKGKSEAATRIIATQAR: -0.011 ± 0.41.
QRMCVYLGTLPLSLLGRMWG gave an amyloid nucleation score of 0.175 ± 1.1.
The same measure for FLRTD: 0.171 ± 1.2; for PYIVKVCGCDPLVHLFI: 0.608 ± 0.23.
The same measure for GVPDFA: 0.685 ± 0.7; for CNMHATETLNIRCVNSDAC: 0.046 ± 1.6; for MVHWVILYAADFPIETLNK: “inactive”.
The same measure for SHGRMCQLEYWSLRKGRGAG: 0.229 ± 0.59; for GIKFQSVGGGVVANSVR: “inactive”; for PWYDRPRVSYSAFLVWIQLH: -0.417 ± 0.93.
As to GVALFVIGLNSQIVANSYTS, the amyloid nucleation score came to 6.285 ± 0.055.
The same measure for AMQYYIHQLVVDLSGLM: 6.57 ± 0.077; for AVGRPPIRYRNTHSISTDSE: 0.565 ± 0.31.
The same measure for LPCSRRTTPSDVCP: -0.271 ± 0.36; for VCWYWVGILRMMICACTSPS: 0.362 ± 0.43; for VWTDGGSYFRDLNRICGV: 3.74 ± 0.084.
MSMLLDSDCLRYFSQEVFWV returned an amyloid nucleation score of -0.742 ± 1.4.
The same measure for YSYMTYRALFVVTSCLSRWG: 1.11 ± 0.66.
The same measure for SVKNYLCLMTTPFVFVLEM: 5.417 ± 0.049; for SSRLKL: 1 ± 0.25.
The same measure for CALAIRIVCS: “inactive”; for FNLRKRRA: 0.205 ± 0.38.
Take FGLIKWWDGVWWLSDLRRLH: the amyloid nucleation score is 0.979 ± 0.65.
For YVIRFVKCR, the amyloid nucleation score was found to be 2.23 ± 0.55.
The substance FGKLYF registered an amyloid nucleation score of -0.52 ± 0.98.
The same measure for GVDSFTDSIEYKVGRRVFRH: 1.21 ± 0.76; for CVLVNVNNDQSWWR: 5.04 ± 0.076.
The same measure for AMPADIILVVGLSCDDRREG: 0.724 ± 0.52; for ECMVYDYNYWVHVYGITYCC: 0.242 ± 0.35; for YYPNPMQPW: -0.526 ± 0.47.
In turn, LLNFFK gave an amyloid nucleation score of 0.609 ± 1.1.
The same measure for TMLWIVIARNFECEMGFNM: 3.1 ± 0.08.
In turn, MLLEFCKCGVGSIVWCQKFA displayed an amyloid nucleation score of 4.94 ± 0.11.
The same measure for FKCLARFWYADYLRFVFARQ: 0.297 ± 0.32.
The same measure for EGQCSNIVSKLAPSKIPYLR: -0.853 ± 0.66; for RILYSSSSAFIGIYSLFVII: 0.292 ± 0.23; for PALWDLCVPKLIVANLIERS: -1.1 ± 1.4.
In the case of HTISENRSGLVTP, the amyloid nucleation score is -0.966 ± 0.9.
The same measure for CRHLFNWASWSTFTRIS: 0.375 ± 0.23; for PLAAYCSVDYGQKIQIATVP: -0.541 ± 0.42; for VSMHYYAGTYSLNNSLV: -0.819 ± 1.1.
The same measure for CSWFVYSNFFSHQMADMEWL: 0.183 ± 0.58; for YLDCIYRGKIISIHTGSGIL: -0.449 ± 0.29.
The same measure for QYRHTQSYRLELKVHGDFKR: -0.171 ± 1.1.
DMVYYNEIPKGRYQHPAG gave an amyloid nucleation score of 0.593 ± 0.56.
The same measure for SLSTVNRKAV: -0.637 ± 0.57; for YDILNGQAHDCYETMVKGWG: -0.372 ± 0.47; for GRSLSFLLIGKYWQYTTQAR: “inactive”.
In turn, DYGIWELSINMSVKYLCWLP returned an amyloid nucleation score of 1.27 ± 0.13.
In turn, IVLVR showed an amyloid nucleation score of -1.21 ± 0.69.
RSESNVMS came in with an amyloid nucleation score of 0.397 ± 0.71.
SEYTLLTFKSFGNRAPHFVG had an amyloid nucleation score of 1.75 ± 0.19.
Consider VCKFNYL, for which the amyloid nucleation score was -0.769 ± 1.1.
Substance GKYMFPCCMTAITQKLRPRR gave an amyloid nucleation score of -0.108 ± 0.33.
The same measure for LDRFVYY: 1.41 ± 0.69; for KIFERRLSMYRSVSFLSRQC: 0.15 ± 0.32; for THAMCRYQSHGKLLSSGADS: 0.781 ± 0.65.
The same measure for YVLWNRASIAPYIQHGLRVL: 1.19 ± 0.19; for SKFIYRRLKELFVFGYSIVT: “inactive”; for SWVSAVIHRYGV: 1.31 ± 0.15.
In turn, GSWQDSRRNFWSGRGMFERV yielded an amyloid nucleation score of 0.484 ± 0.47.
In the case of CTLKWLTF, the amyloid nucleation score was 1.34 ± 0.43.
As for AFNKAVMSDTQL, the amyloid nucleation score is -0.7 ± 0.6.
The same measure for AKHVLGNHAIRNGSKL: 0.258 ± 0.3; for IWCFLI: 0.333 ± 0.55; for CTLILSQQFSSIPVHFILYM: 4.4 ± 0.05.
The same measure for IYNGWQIRGNVNMMLCVCEW: 6.568 ± 0.059; for SFLLKKKVPWPFFCTCMLVG: -0.575 ± 1.5; for HRNSCVPPGVAGIVTVCL: 0.363 ± 0.6.
The same measure for VEQLFGLAMRDLA: -0.448 ± 0.8.
FGPRSDAVLVLYFSYVSPLD showed an amyloid nucleation score of -1.79 ± 2.4.
The same measure for TGAYSECFALLIMG: -1.09 ± 1; for FGSMLNGVRYQ: 0.747 ± 0.66; for SVWGIILYYWKY: 0.388 ± 0.43.
The same measure for MLVDIGRC: -1.31 ± 1.6; for KYKESMYLRLCFRYVWTNYS: 0.441 ± 0.61; for SVLCTLALSTCLGCLIVS: “inactive”.
The same measure for LNEHLFR: 0.615 ± 0.87.
The substance VHNHISP showed an amyloid nucleation score of -0.836 ± 0.37.
The same measure for SHREMPSPIGMVSSSFMRVT: 0.539 ± 0.9; for RDPYMCSLVRAGSGSKGTI: 0.447 ± 0.56.
As for IQGNFRDLGRDKHDTEVWHP, the amyloid nucleation score stood at 0.858 ± 0.45.
The same measure for FWREHTMR: “inactive”; for YLKGVG: 0.104 ± 0.74; for ISCVICAMIILRWHV: 0.045 ± 0.9.
The same measure for LGSWARD: -0.27 ± 0.54.
The same measure for GSYGERIGEDVVNFARSYNG: 0.267 ± 0.38; for SGCRYSAIVGSPMRCNMYRS: -0.756 ± 2.4; for RYMVGSENEIRL: 0.583 ± 0.29.
In turn, AHSAYL gave an amyloid nucleation score of 0.43 ± 0.4.
For CVSGVDLYRGSLGACGW, the amyloid nucleation score result was “inactive”.
The same measure for LCLILVGSY: 0.062 ± 0.79; for DLIAARLAALF: -0.964 ± 0.39; for TRCCLFDRSSIYPSYCNEEA: -0.123 ± 0.9.
The same measure for LLKIGVA: -0.465 ± 1.5.
The same measure for GGEDLRKFLDMFVIVSKNTT: 0.67 ± 0.46; for SSSKLLR: -0.4 ± 0.7.
LFKNRVRLLLHERSLLPVII yielded an amyloid nucleation score of 0.469 ± 0.68.
The same measure for MFRNI: 0.227 ± 0.26; for CTDSEAKGCDFFGRISVNVY: 0.689 ± 0.73.
The same measure for ALNGSNRIIACTIIWCVVW: 2.51 ± 0.18.
The same measure for GLAWTYLRPW: 0.143 ± 0.32; for RLAGKHKRTDTRSKRTPVLR: 0.495 ± 0.47.
Substance ELIIRTRLAVEELLMKACFV registered an amyloid nucleation score of -0.498 ± 0.39.
The same measure for RLFSENMQEVMV: -0.698 ± 0.52; for YLNTLRR: “inactive”.
For LFQSA, the amyloid nucleation score stood at 0.854 ± 0.17.
The same measure for VLFYQF: -0.382 ± 0.69; for LVPSTFHTF: 0.149 ± 0.77.
The same measure for FGQNFEGIWPFVVKNRRLGQ: -1.12 ± 0.59.
The same measure for ISTDPWAAHYNRTHIQ: 1.98 ± 0.15.
